Laboratory results published in patent publication US20230140293A1.
Read-outs that look alike come from different tables or passages of the source.

Assays:
Assay in all cases: cell-based or functional assay
[1] = molecular target: HIV-1 CH0505TF.gly3.197 Env on Env-pseudotyped virus produced in 293T cells (HIV-1)
[2] = molecular target: HIV-1 Env 426c.SM (N276D), Env-pseudotyped virus produced in 293T cells (HIV-1 clade C strain 426c)
[3] = molecular target: CH0505.w4.3 Env, pseudotyped virus produced in 293S GnTI- cells (HIV-1)
[4] = molecular target: HIV-1 Env 426c.TM (N276D.N460D.N463D), Env-pseudotyped virus produced in 293S GnTI- cells (Man5-enriched) (HIV-1 clade C strain 426c)
[5] = molecular target: CH0505TF.gly3.276 Env, Env-pseudotyped virus produced in 293T cells (HIV-1)
[6] = molecular target: HIV-1 CH0505TF (CH505 transmitted/founder) Env on Env-pseudotyped virus produced in 293T cells (HIV-1)
[7] = molecular target: HIV-1 Env 426c.DM (N460D.N463D), Env-pseudotyped virus produced in 293T cells (HIV-1 clade C strain 426c)
[8] = molecular target: HIV-1 CH0505TF.gly4 Env on Env-pseudotyped virus produced in 293T cells (HIV-1)
[9] = molecular target: CH0505TF Env, Env-pseudotyped virus produced in 293T cells (HIV-1)
[10] = molecular target: HIV-1 CH0505TF.gly4 Env on Env-pseudotyped virus produced in 293S/GnTI-/- cells (Man5-enrichment) (HIV-1)
[11] = molecular target: CH0505TF.G458Y Env, Env-pseudotyped virus produced in 293T cells (HIV-1)
[12] = molecular target: CH0505TF.gly3.461 Env, Env-pseudotyped virus produced in 293T cells (HIV-1)
[13] = molecular target: HIV-1 426c.DM (N460D/N463D) Env on Env-pseudotyped virus produced in 293T cells (HIV-1)
[14] = molecular target: CH0505TF.gly4 Env, pseudotyped virus produced in 293S GnTI- cells (HIV-1)
[15] = molecular target: HIV-1 426c.SM (N276D) Env on Env-pseudotyped virus produced in 293T cells (HIV-1)
[16] = molecular target: HIV-1 Env 426c.TM (N276D.N460D.N463D), Env-pseudotyped virus produced in 293T cells (HIV-1 clade C strain 426c)
[17] = molecular target: HIV-1 426c.DM (N460D/N463D) Env on Env-pseudotyped virus produced in 293s/GnTI-/- cells (Man5-enrichment) (HIV-1)
[18] = molecular target: HIV-1 426c.TM (N276D/N460D/N463D) Env on Env-pseudotyped virus produced in 293s/GnTI-/- cells (Man5-enrichment) (HIV-1)
[19] = molecular target: HIV-1 clade C strain 426c Env on Env-pseudotyped virus produced in 293s/GnTI-/- cells (Man5-enrichment) (HIV-1)
[20] = molecular target: HIV-1 426c.SM (N276D) Env on Env-pseudotyped virus produced in 293s/GnTI-/- cells (Man5-enrichment) (HIV-1)
[21] = molecular target: HIV-1 Env 426c.SM (N276D), Env-pseudotyped virus produced in 293S GnTI- cells (Man5-enriched) (HIV-1 clade C strain 426c)
[22] = molecular target: HIV-1 Env 426c.TM4 (S278R.G471S.N460D.N463D), Env-pseudotyped virus produced in 293S GnTI- cells (Man5-enriched) (HIV-1 clade C strain 426c)
[23] = molecular target: HIV-1 426c.TM (N276D/N460D/N463D) Env on Env-pseudotyped virus produced in 293T cells (HIV-1)
[24] = molecular target: CH0505.w4.3 Env, Env-pseudotyped virus produced in 293T cells (HIV-1)
[25] = molecular target: CH0505TF.G458Y Env, pseudotyped virus produced in 293S GnTI- cells (HIV-1)
[26] = molecular target: HIV-1 Env 426c, Env-pseudotyped virus produced in 293T cells (HIV-1 clade C strain 426c)
[27] = molecular target: CH0505TF.gly3.461 Env, pseudotyped virus produced in 293S GnTI- cells (HIV-1)
[28] = molecular target: CH0505TF.gly4 Env, Env-pseudotyped virus produced in 293T cells (HIV-1)
[29] = molecular target: HIV-1 CH0505TF.N280D Env on Env-pseudotyped virus produced in 293T cells (HIV-1)
[30] = molecular target: HIV-1 CH0505TF (CH505 transmitted/founder) Env on Env-pseudotyped virus produced in 293T cells (HIV-1); remark: listed apart in the source
[31] = molecular target: HIV-1 CH0505TF.G458Y Env on Env-pseudotyped virus produced in 293T cells (HIV-1)
[32] = molecular target: HIV-1 CH0505TF.S365P Env on Env-pseudotyped virus produced in 293T cells (HIV-1)
[33] = molecular target: HIV-1 CH0505TF Env on Env-pseudotyped virus produced in 293S/GnTI-/- cells (Man5-enrichment) (HIV-1)
[34] = molecular target: HIV-1 CH0505TF.S365P Env on Env-pseudotyped virus produced in 293S GnTI- cells (HIV-1)
[35] = molecular target: HIV-1 CH0505TF.N280D Env on Env-pseudotyped virus produced in 293S GnTI- cells (HIV-1)

Substance | IC50 (ug/ml) in TZM-bl cells [1] [µg/mL] | IC50 (µg/ml) in TZM-bl [2] [µg/mL] | IC50 (µg/ml) in TZM-bl [3] [µg/mL] | IC50 (µg/ml) in TZM-bl [4] [µg/mL] | IC50 (µg/ml) in TZM-bl [5] [µg/mL] | IC50 (ug/ml) in TZM-bl cells [6] [µg/mL] | IC50 (µg/ml) in TZM-bl [7] [µg/mL] | IC50 (ug/ml) in TZM-bl cells [8] [µg/mL] | IC50 (µg/ml) in TZM-bl [9] [µg/mL] | IC50 (ug/ml) in TZM-bl cells [10] [µg/mL] | IC50 (µg/ml) in TZM-bl [11] [µg/mL] | IC50 (µg/ml) in TZM-bl [12] [µg/mL] | ID50/IC50 in TZM-bl [13] [µg/mL] | IC50 (µg/ml) in TZM-bl [14] [µg/mL] | ID50/IC50 in TZM-bl [15] [µg/mL] | IC50 (µg/ml) in TZM-bl [16] [µg/mL] | ID50/IC50 in TZM-bl [17] [µg/mL] | ID50/IC50 in TZM-bl [18] [µg/mL] | ID50/IC50 in TZM-bl [19] [µg/mL] | ID50/IC50 in TZM-bl [20] [µg/mL] | other results
CH103 (antibody) | 1.6 | > 40 | 0.18 | 0.09 | 0.014 | 2.6 | 6.1 | 0.01 | 1.9 | 0.005 | 6.4 | 0.014 | 6.1 | 0.005 | > 40 | 5.2 | 0.63 | 0.09 | 5.3 | 2.2 | IC50 (µg/ml) in TZM-bl [21]: 2.2 µg/mL; IC50 (µg/ml) in TZM-bl [22]: 0.48 µg/mL; ID50/IC50 in TZM-bl [23]: 5.2 µg/mL; IC50 (µg/ml) in TZM-bl [24]: 0.31 µg/mL; IC50 (µg/ml) in TZM-bl [25]: 0.44 µg/mL; IC50 (µg/ml) in TZM-bl [26]: > 40 µg/mL; IC50 (µg/ml) in TZM-bl [27]: 0.009 µg/mL; IC50 (µg/ml) in TZM-bl [28]: 0.002 µg/mL; IC50 (µg/ml) in TZM-bl [29]: 1.2 µg/mL; IC50 (µg/ml) in TZM-bl [30]: 1.9 µg/mL; IC50 (µg/ml) in TZM-bl [31]: 5.8 µg/mL; IC50 (µg/ml) in TZM-bl [32]: > 50 µg/mL; IC50 (µg/ml) in TZM-bl [33]: 0.57 µg/mL; IC50 (µg/ml) in TZM-bl [34]: 1.7 µg/mL; IC50 (µg/ml) in TZM-bl [35]: 0.24 µg/mL
CH235 (antibody) | 0.16 | > 50 | 0.03 | > 25 | 0.034 | 0.35 | > 50 | 0.022 | 0.3 | 0.004 | 0.1 | 0.086 | > 50 | 0.004 | > 50 | > 50 | > 25 | > 25 | > 25 | > 25 | IC50 (µg/ml) in TZM-bl [6]: 0.35 µg/mL; IC50 (µg/ml) in TZM-bl [21]: > 25 µg/mL; IC50 (µg/ml) in TZM-bl [22]: > 25 µg/mL; ID50/IC50 in TZM-bl [23]: > 50 µg/mL; IC50 (µg/ml) in TZM-bl [24]: 0.4 µg/mL; IC50 (µg/ml) in TZM-bl [25]: < 0.02 µg/mL; IC50 (µg/ml) in TZM-bl cells [25]: < 0.005 µg/mL; IC50 (µg/ml) in TZM-bl [26]: > 50 µg/mL; IC50 (µg/ml) in TZM-bl [27]: 0.011 µg/mL; IC50 (µg/ml) in TZM-bl [28]: 0.022 µg/mL; IC50 (µg/ml) in TZM-bl [29]: > 25 µg/mL; IC50 (µg/ml) in TZM-bl [30]: 0.3 µg/mL; IC50 (µg/ml) in TZM-bl [31]: 0.1 µg/mL; IC50 (µg/ml) in TZM-bl [32]: 0.6 µg/mL; IC50 (µg/ml) in TZM-bl [33]: 0.03 µg/mL; IC50 (µg/ml) in TZM-bl [34]: 0.02 µg/mL; IC50 (µg/ml) in TZM-bl [35]: 3.4 µg/mL
